Our source for the IC50 values is patent US20160130305A1.

In general, pIC50 refers to the IC50 on a negative log10 scale, so that one unit is a factor of ten. Lower therefore signals a large IC50.

pIC50: −log10 of the molar value. Some results are limits rather than exact numbers.

One assay addresses HLA DRB1*0101 (human). The assay is described as follows: competition with radiolabeled probe peptide, purified MHC.
Another assay concerns the target HLA B*0702 (human). The assay is described as follows: competition with radiolabeled probe peptide on purified HLA.

The substance “NS52967-2981 (peptide; other documents disagree on this pair)” gave a pIC50 in the assay with HLA DRB1*0101 (human) of 7.32. Take NS4B2296-2305 (peptide): the pIC50 in the assay with HLA B*0702 (human) is < 6.00.
